# Test results from patent US20260063625A1, “COMPOSITIONS FOR AND METHODS OF DETECTING FOOD TOXINS” (priority 2022, published 2026).
# B1: E540Q: RcSxph mutant E540Q (protein)
# chain: MAPTFQTALFFTIISLSFAAPNAKQVRWCAISDLEQKKCNDLVGSCNVPDITLVCVLRSSTEDCMTAIKDGQADAMFLDSGEVYEASKDPYNLKPIIAEPYSSNRDLQKCLKERQQALAKKMIGHYIPQCDEKGNYQPQQCHGSTGHCWCVNAMGEKISGTNTPPGQTRATCERHELPKCLKERQVALGGDEKVLGRFVPQCDEKGNYEPQQFHGSTGYSWCVNAIGEEIAGTKTPPGKIPATCQKHDLVTTCHYAVAMVKKSSAFQFNQLKGKRSCHSGVSKTDGWKALVTVLVEKKLLSWDGPAKESIQRAMSKFFSVSCIPGATQTNLCKQCKGEEGKNCKNSHDEPYYGNYGAFRCLKEDMGDVAFLRSTALSDEHSEVYELLCPDNTRKPLNKYKECNLGTVPAGTVVTRKISDKTEDINNFLMEAQKRQCKLFSSAHGKDLMFDDSTLQLALLSSEVDAFLYLGVKLFHAMKALTGDAHLPSKNKVRWCTINKLEKMKCDDWSAVSGGAIACTEASCPKGCVKQILKGEADAVKLEVQYMYEALMCGLLPAVQEYHNKDDFGPCKTPGSPYTDFGTLRAVALVKKSNKDINWNNIKGKKSCHTGVGDIAGWVIPVSLIRRQNDNSDIDSFFGESCAPGSDTKSNLCKLCIGDPKNSAANTKCSLSDKEAYYGNQGAFRCLVEKGDVAFVPHTVVFENTDGKNPAVWAKNLKSEDFELLCLDGSRAPVSNYKSCKLSGIPPPAIVTREESISDVVRIVANQQSLYGRKGFEKDMFQLFSSNKGNNLLFNDNTQCLITFDRQPKDIMEDYFGKPYYTTVYGASRSAMSSELISACTIKHC
# B2: D794N: RcSxph mutant D794N (protein)
# chain: MAPTFQTALFFTIISLSFAAPNAKQVRWCAISDLEQKKCNDLVGSCNVPDITLVCVLRSSTEDCMTAIKDGQADAMFLDSGEVYEASKDPYNLKPIIAEPYSSNRDLQKCLKERQQALAKKMIGHYIPQCDEKGNYQPQQCHGSTGHCWCVNAMGEKISGTNTPPGQTRATCERHELPKCLKERQVALGGDEKVLGRFVPQCDEKGNYEPQQFHGSTGYSWCVNAIGEEIAGTKTPPGKIPATCQKHDLVTTCHYAVAMVKKSSAFQFNQLKGKRSCHSGVSKTDGWKALVTVLVEKKLLSWDGPAKESIQRAMSKFFSVSCIPGATQTNLCKQCKGEEGKNCKNSHDEPYYGNYGAFRCLKEDMGDVAFLRSTALSDEHSEVYELLCPDNTRKPLNKYKECNLGTVPAGTVVTRKISDKTEDINNFLMEAQKRQCKLFSSAHGKDLMFDDSTLQLALLSSEVDAFLYLGVKLFHAMKALTGDAHLPSKNKVRWCTINKLEKMKCDDWSAVSGGAIACTEASCPKGCVKQILKGEADAVKLEVQYMYEALMCGLLPAVEEYHNKDDFGPCKTPGSPYTDFGTLRAVALVKKSNKDINWNNIKGKKSCHTGVGDIAGWVIPVSLIRRQNDNSDIDSFFGESCAPGSDTKSNLCKLCIGDPKNSAANTKCSLSDKEAYYGNQGAFRCLVEKGDVAFVPHTVVFENTDGKNPAVWAKNLKSEDFELLCLDGSRAPVSNYKSCKLSGIPPPAIVTREESISDVVRIVANQQSLYGRKGFEKDMFQLFSSNKGNNLLFNDNTQCLITFDRQPKDIMENYFGKPYYTTVYGASRSAMSSELISACTIKHC
# B3: F784Y: RcSxph mutant F784Y (protein)
# chain: MAPTFQTALFFTIISLSFAAPNAKQVRWCAISDLEQKKCNDLVGSCNVPDITLVCVLRSSTEDCMTAIKDGQADAMFLDSGEVYEASKDPYNLKPIIAEPYSSNRDLQKCLKERQQALAKKMIGHYIPQCDEKGNYQPQQCHGSTGHCWCVNAMGEKISGTNTPPGQTRATCERHELPKCLKERQVALGGDEKVLGRFVPQCDEKGNYEPQQFHGSTGYSWCVNAIGEEIAGTKTPPGKIPATCQKHDLVTTCHYAVAMVKKSSAFQFNQLKGKRSCHSGVSKTDGWKALVTVLVEKKLLSWDGPAKESIQRAMSKFFSVSCIPGATQTNLCKQCKGEEGKNCKNSHDEPYYGNYGAFRCLKEDMGDVAFLRSTALSDEHSEVYELLCPDNTRKPLNKYKECNLGTVPAGTVVTRKISDKTEDINNFLMEAQKRQCKLFSSAHGKDLMFDDSTLQLALLSSEVDAFLYLGVKLFHAMKALTGDAHLPSKNKVRWCTINKLEKMKCDDWSAVSGGAIACTEASCPKGCVKQILKGEADAVKLEVQYMYEALMCGLLPAVEEYHNKDDFGPCKTPGSPYTDFGTLRAVALVKKSNKDINWNNIKGKKSCHTGVGDIAGWVIPVSLIRRQNDNSDIDSFFGESCAPGSDTKSNLCKLCIGDPKNSAANTKCSLSDKEAYYGNQGAFRCLVEKGDVAFVPHTVVFENTDGKNPAVWAKNLKSEDFELLCLDGSRAPVSNYKSCKLSGIPPPAIVTREESISDVVRIVANQQSLYGRKGFEKDMFQLFSSNKGNNLLFNDNTQCLITYDRQPKDIMEDYFGKPYYTTVYGASRSAMSSELISACTIKHC
# B4: F784C: RcSxph mutant F784C (protein)
# chain: MAPTFQTALFFTIISLSFAAPNAKQVRWCAISDLEQKKCNDLVGSCNVPDITLVCVLRSSTEDCMTAIKDGQADAMFLDSGEVYEASKDPYNLKPIIAEPYSSNRDLQKCLKERQQALAKKMIGHYIPQCDEKGNYQPQQCHGSTGHCWCVNAMGEKISGTNTPPGQTRATCERHELPKCLKERQVALGGDEKVLGRFVPQCDEKGNYEPQQFHGSTGYSWCVNAIGEEIAGTKTPPGKIPATCQKHDLVTTCHYAVAMVKKSSAFQFNQLKGKRSCHSGVSKTDGWKALVTVLVEKKLLSWDGPAKESIQRAMSKFFSVSCIPGATQTNLCKQCKGEEGKNCKNSHDEPYYGNYGAFRCLKEDMGDVAFLRSTALSDEHSEVYELLCPDNTRKPLNKYKECNLGTVPAGTVVTRKISDKTEDINNFLMEAQKRQCKLFSSAHGKDLMFDDSTLQLALLSSEVDAFLYLGVKLFHAMKALTGDAHLPSKNKVRWCTINKLEKMKCDDWSAVSGGAIACTEASCPKGCVKQILKGEADAVKLEVQYMYEALMCGLLPAVEEYHNKDDFGPCKTPGSPYTDFGTLRAVALVKKSNKDINWNNIKGKKSCHTGVGDIAGWVIPVSLIRRQNDNSDIDSFFGESCAPGSDTKSNLCKLCIGDPKNSAANTKCSLSDKEAYYGNQGAFRCLVEKGDVAFVPHTVVFENTDGKNPAVWAKNLKSEDFELLCLDGSRAPVSNYKSCKLSGIPPPAIVTREESISDVVRIVANQQSLYGRKGFEKDMFQLFSSNKGNNLLFNDNTQCLITCDRQPKDIMEDYFGKPYYTTVYGASRSAMSSELISACTIKHC
# B5: F784L: RcSxph mutant F784L (protein)
# chain: MAPTFQTALFFTIISLSFAAPNAKQVRWCAISDLEQKKCNDLVGSCNVPDITLVCVLRSSTEDCMTAIKDGQADAMFLDSGEVYEASKDPYNLKPIIAEPYSSNRDLQKCLKERQQALAKKMIGHYIPQCDEKGNYQPQQCHGSTGHCWCVNAMGEKISGTNTPPGQTRATCERHELPKCLKERQVALGGDEKVLGRFVPQCDEKGNYEPQQFHGSTGYSWCVNAIGEEIAGTKTPPGKIPATCQKHDLVTTCHYAVAMVKKSSAFQFNQLKGKRSCHSGVSKTDGWKALVTVLVEKKLLSWDGPAKESIQRAMSKFFSVSCIPGATQTNLCKQCKGEEGKNCKNSHDEPYYGNYGAFRCLKEDMGDVAFLRSTALSDEHSEVYELLCPDNTRKPLNKYKECNLGTVPAGTVVTRKISDKTEDINNFLMEAQKRQCKLFSSAHGKDLMFDDSTLQLALLSSEVDAFLYLGVKLFHAMKALTGDAHLPSKNKVRWCTINKLEKMKCDDWSAVSGGAIACTEASCPKGCVKQILKGEADAVKLEVQYMYEALMCGLLPAVEEYHNKDDFGPCKTPGSPYTDFGTLRAVALVKKSNKDINWNNIKGKKSCHTGVGDIAGWVIPVSLIRRQNDNSDIDSFFGESCAPGSDTKSNLCKLCIGDPKNSAANTKCSLSDKEAYYGNQGAFRCLVEKGDVAFVPHTVVFENTDGKNPAVWAKNLKSEDFELLCLDGSRAPVSNYKSCKLSGIPPPAIVTREESISDVVRIVANQQSLYGRKGFEKDMFQLFSSNKGNNLLFNDNTQCLITLDRQPKDIMEDYFGKPYYTTVYGASRSAMSSELISACTIKHC
# Assay: Fluorescence polarization (FP) binding to fluorescein labeled STX
# Details: […]G = RT ln (KdSxph mutant/KdSxph); T = 298K
# Description: […]; Measurements were performed at 25° C. on a Synergy H1 microplate reader (BioTek) using the polarization filter setting (excitation 485 nm, emission 528 nm). […]. The dissociation constants were calculated using GraphPad Prism by fitting fluorescence millipolarization (mP=P·10^−3, where P is polarization) as a function of Sxph concentration using the equation: P={(Pbound−Pfree) [Sxph]/(Kd+[Sxph])}+Pfree, where P is the polarization measured at a given Sxph concentration, Pfree is the […], and Pbound is the maximum polarization of Sxph bound by F-STX (Rossi and Taylor, Hansen et al.).
row,Molecule,[…]G (kcal mol^−1) relative to wild-type RcSxph
1,B1,4.30 kcal/mol
2,B2,3.60 kcal/mol
3,B3,0.37 kcal/mol
4,B4,3.15 kcal/mol
5,B5,1.11 kcal/mol
